Experimental data published in the nanobody polyreactivity screen of Harvey et al. (2022).

Assay: yeast display, Sf9 membrane polyspecificity reagent, FACS + sequencing; frameworks hold sequencing errors
Procedure, shortened: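 After 36–48 hours of galactose induction, yeast (Saccharomyces cerevisiae BJ5465) displaying a synthetic nanobody library were stained at 4 °C for 1 hour with 10% biotinylated, detergent-solubilized Sf9 membrane reagent. Streptavidin microbeads enriched the stained cells before FACS sorting into low and high (top ~1%) gates on anti-HA and streptavidin fluorescence. Each clone's polyreactivity label reflects its gate of origin.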

Row | Sequence | polyreactivity (PSR sort gate)
1 | QVKLVDSGGGLVQAGGSLRLSCAASGFIFYSYDMGWYRQAPGKERELVATITSGDDTYYADSVKGRFTISRDNAKNTVYLQMNSQKPEDTAVGYWGQGTQVTVSS | low polyreactivity
2 | QVKLVDSGGGLVQAGGSLRLSCAASGRTFRYYTMGWYRQAPGTERELVAAITRNVGRTYYADSVKGRFTISRDNAKNTVYLQMNSLKPEDTAVYYCAAGTYDGGYHYDYWGQGTQLTVSS | high polyreactivity
3 | QVKLVEAGGGLVQAGGSLRFSCAASGNIFQGNARGWYREAPGKERELVAAITYSGAGTYYADSVKGRFTISRDNAKNSVYLQMNSLNPEDTAVYYSAADWYTFEYDYWGQGTQVTVSS | low polyreactivity
4 | QVKLVESAGGLVQAGGSLRLSCAASGRTFVGNAMGWYRQEPGKEREVVAAITSRTGSTYYADSVKGRFTISRDNAKNTGYLQMNSLKPEDTAVYYGATPYYQIVYSRKAYNFWGQGTQVTVSS | high polyreactivity
5 | QVKLVESAGGLVQAGGSLRLSCAASGSIFNPYDMGWYRQAPGKERELVAAIDWSGGSTYYADSVKGRFTISRDNAKNTVYLQMNSLKPEDTAVYYCNAESYQDTLFGADNDYDYWGQGTQVTVSS | low polyreactivity
6 | QVKLVESGGGIVQAGGSLRLSCAASGRIFYSNVMGWYRQAPGKERELVATISGSSGRTYADSVKGRFTISRDNAKNTVYLQMNSLKPEDTAVYYCAADSPSVWGYRYDYDYWGQGTQVTVSS | low polyreactivity
7 | QVKLVESGGGLFQAGGSLRLSCAASVSIFYGNAIVWYRQAPGKERELVAAISSRGTRTYYADSVKGRFTISRDNAKNTVYLQMNSLNPEATAVYYCAAADYRFYNGPYSRRWLYGYWGQGTQVTVSS | high polyreactivity
8 | QVKLVESGGGLVKAGGRLRLSCAASGSTFRKYTMGWYRQAPWKERELVAAITYRGDRTYYADSVKGRFTISRDNAKNNVYLQMNSLKQEDTAVYYCAAVYVRGDRYDYWGQGTQVTVSS | high polyreactivity
9 | QVKLVESGGGLVQAGGRLRLSCAASGFTFPSNAMVWYRHAPGKEREMVAAISSTDSTNYADSVMGRFTISRDNAKNTVYLQMNSLNPEDTAVYYCAKRYPRYRYNTRGNDYWGQGTQVTVSS | low polyreactivity
10 | QVKLVESGGGLVQAGGSLRISCAASGRTFGYNAMGWYRQAPGKERELVAGISGRTASTYYADSVKGRFTISRDNAKNTVYLQMNSLKPVDTEVYYCATQFGSIYRYDYWGQGTEVTVSS | high polyreactivity
11 | QVKLVESGGGLVQAGGSLRLSCAASGFTFALYSMGWYRQAPGKERELVAAITRRGGSTYYADSVKGRFTISRDNAKNTVYVQMNSLKPEDTAVYYCAKRERAIKVSRYDSHDYWGQGTQVTVSS | high polyreactivity
12 | QVKLVESGGGLVQAGGSLRLSCAASGFTFNANAMRWYRQAPGKERELVAAISLSGGRTYYADSVKGRFTISRDNAKNTVYLQMISLKPEDTAVYYCAASPDGSFRRFSRVVSGDYWGKGTQVTVSS | high polyreactivity
13 | QVKLVESGGGLVQAGGSLRLSCAASGFTFSGYDMGWYRQAPGKERELVAGISSGGVSTTYADSVKGRFTISRDNAKNTVYLQMNSLIPEDTAVYYCNAEWTSFDWGQGTQVTVSS | low polyreactivity
14 | QVKLVESGGGLVQAGGSLRLSCAASGFTFYTYAMGWYRQAPGKETELFAAITGSGGRTYYADSVKGRFTISRDNAKNTVYLKMHSLKPEYTSLYYCAALYVYRPRTPYGYWGQGTQVTVSS | high polyreactivity
15 | QVKLVESGGGLVQAGGSLRLSCAASGFTVYGYSMGWYRQEPGKERELVAAITSVGDTNYADSVKGRFTISRDNAKNNVYLQINSLKPEDTAVYYCKADPVYYFYWWTGDYWGQGTQETVSS | low polyreactivity
16 | QVKLVESGGGLVQAGGSLRLSCAASGFTYFINGMGWYRQAPGKERQLVAAIRSSGASTYYADSVKGRFTISRDNAKNTVYLQMNSLKPEDTAVYYCNARSSVCNSGADYDYWGQGTQVTVSS | low polyreactivity
17 | QVKLVESGGGLVQAGGSLRLSCAASGRIFIEYARGWYRQAPGKERELVASSTSSGGRTTYADSVKGRFTISRDNAKNTVYLQINSLKPEDTAVYYCNKDYYPRGHTRFGYWGVGTQVTVSS | low polyreactivity
18 | QVKLVESGGGLVQAGGSLRLSCAASGRIFRYYVMGWYRQAPGKERELVAAITSGGSTYYADSVKGRFTISRDNAKNTVYLQMNSLKPEDTAVYYCNVVGRYGSFRSAEMNYWGQGTQVTVSS | high polyreactivity
19 | QVKLVESGGGLVQAGGSLRLSCAASGRTFAWYTMGRYRQAPGKERALVAAISGSGGSTYYADSVKGRFTISRDNAKNTVYLQLNSLKPEDTDVYYCARRVDSYYCHTRYYYWGQGTQVTVSS | high polyreactivity
20 | QVKLVESGGGLVQAGGSLRLSCAASGRTFKYYAMGWYRQAPGKERELVAAISWSGGSTYYADSVMGRFTISRDNAKNTVYLQMNSLKPEDTAVYYCAAVRNYHGTWYDYWGQGTQVTVSS | high polyreactivity
21 | QVKLVESGGGLVQAGGSLRLSCAASGRTFPRYAMGWYRQAPGKERELVAVIYGGGTYYADSVKGRFTISRDNAKNTVYLQMNSLKPEDTSVYYCNARSYQSARFRGGYWGQGTQVTVSS | high polyreactivity
22 | QVKLVESGGGLVQAGGSLRLSCAASGSIFALYAMGWYRQAPGKEREFVARISWGGGRTYYADSVKGRFTISRDNAQNTVYLQMNSLKPEDTAVYYCNAERAGTYSYDYWGQGTQVTVSS | high polyreactivity

Row | Sequence | polyreactivity (PSR sort gate)
23 | QVKLVESGGGLVQAGGSLRLSCAASGSIFNTYVMGWYRQAPGKERELVAAITSSGGRTYYADSVKGRFTISRDNAKNTVYLQMNSLKPEDTAVYYCNTAQRWVGRNDYWGQGTQVTVSS | high polyreactivity
24 | QVKLVESGGGLVQAGGSLRLSCAASGSIFWSYAMGWYRQAPGKEREFVPSITGSGGTTTYADSVKGRFTISLDNAKNTVYVQMNSLKPEDTAVYYCNARLHGWYHVYYIYDYWGQGTQVTVSS | low polyreactivity
25 | QVKLVESGGGLVQAGGSLRLSCAASGSIFWYNAMGWYRQAPGKERELVAAIRWRGGSTYYADSVNGRFTISRDNAKNTVYLQMNSLKPEDTAVYYCAAQVYVSQMYTSYYYWGQGTQVTVSS | high polyreactivity
26 | QVKLVESGGGLVQAGGSLRLSCAASGSIFYTYAMGWYRPAPGKERELVAAISSGGSTDYADSVKGRFTISRDNAKNTVYLQMNSLKPEDTAVYYCAAVAVELASEYDYWGQGTQVTVSS | low polyreactivity
27 | QVKLVESGGGLVQAGGSLRLSCAASGSTFASYAMGWYRQDPGKQRELVAAITRSGGSSTYADSVKGRFTISRDNAKITVYLQMNSLKPEDTAVYYCAARYLYSYYVSYDYWGQGTQLTVSS | high polyreactivity
28 | QVKLVESGGGLVQAGGSLRLSCAASGSTFFIYTKGLYRQAPGKEREFVAAISWTGGRTYYADSVKGRFTISRDNAKNTVYLQMNSLKPEDTAVYYCAARYKYSSYDYWGQGTQVTVSS | high polyreactivity
29 | QVKLVESGGGLVQAGGSLRLSCAASGSTFPTNAMVCYRQAPGKERELVAGITEGGSSTYYADSVKGRFTISRDNAKNTVYLQMNSLKPEVTAVYYCAADVLWYGPFWVRQDDYWGQGTQVTVSS | high polyreactivity
30 | QVKLVESGGGLVQAGGSLRLSCAASGSTFWIYAMAWYRQAPGKERELVAAISWRGGRTYYADSVKGRFTISRDNAKNTVYLQMNSLKPEDSAVYYCYAQKRDGSMGYWGQGTQVTVSS | high polyreactivity
31 | QVKLVESGGGLVQAGGSLRLSCAASGSTFYKYTMGWNRQEPGKGRELVAAINWSGSTYYADSVKGRFTISRDNAKNTVYLQMNSLKTEDTAVYYCAATYIYRYDYWGQGTQVTVSS | high polyreactivity
32 | QVKLVESGGGLVQAGGSLRLSCADSGRIFYIYAMGWYRQSPGKERELVAAISSGGTTNYADSVKGRLTISRDNAKNTVYLQMNSLKPEDTAVYYCACYWRSRNRFYWGQGTQVTVSS | high polyreactivity
33 | QVKLVESGGGLVQAGGSLRLSCGASGSIFRWYALGWYRQAPGKERELVAAIDYSGGSTYYADSVKGRFTISRDNAKNTVYLQMNSLKPEDTAVYYCAATAFYGGFLRYDYWGQGTQVTVSS | low polyreactivity
34 | QVKLVESGGGLVQAGGSLRLSCGASVGTFYRYSMVWFRQAPGKERELVAVISKRGGTTYYADSVKRRFTISRDNANNTVNLQMNSLKPEDTAVYYCADRPYYWGQGTQVTVSS | high polyreactivity
35 | QVKLVESGGGLVQAGGSLRLSCPASGFIFYDYVMGWYRQAPGKERELVAAISSNGGSTYYADSVKGRFSISRDNAKYTVYLQMNSLKPEDTAVYYCAAEGKSYPWPWYFDYWGQGTQVTVSS | high polyreactivity
36 | QVKLVESGGGLVQAGGSLRLSCPASGRIFYTNARGWSRQQPGQESEFVAAISYSGGTTYYADSVKGRFTISRDNAKNNVYLQMNSLKPEDTAVYYCARRYRSYYYRSKMDYWGQGTQVTVSS | high polyreactivity
37 | QVKLVESGGGLVQAGGSLRLTCAASGSNFDINAMGWYRQAPGKERELVAAISWSGGDTYADSVKGRFTISRDNAKITVYLQMNCLKPEDTAVYYCDTGDPHEEQYYYDYCGQGTQVTVSS | low polyreactivity
38 | QVKLVESGGGLVQAGGSRRLSCAASGLIFYSYAMGWSRQAPGKERELVAAISSRGGSTYYADSVKGRFTISRDNAKNTVYLQMNSLKPDDTAVYYCNAYFLLPHYDYWGQGTQVTVSS | low polyreactivity
39 | QVKLVESGGGLVQEGASLRLSCAASGRIFGNYAMGWYRQAPGKERELVAAIDLSGDSTYYADSVKGRFTISRDNAKNTVYLQMNSLKPEDTAVYYCAATDWFSEYYWGQGTQVTVSS | low polyreactivity
40 | QVKLVESGGGVVQAGGSLSLSCAASGRIFGGNAMGWYRQAPGKERELVAAISRTGGSTYYADSVKGRFTISRDIAKNTVYLQMNSLKPEDTAVNYCNAVYRYAHPMEYWGQGTQVTVSS | high polyreactivity
41 | QVKLVESGGVLVQAGGSLRITCAGSGRIFSRYVMGWYRQAPGKETEFVAYITWSGSSTFYADSVKGRFTISRDNAKNTGYLQMNSHKPEDSAVYFCAALGLLSPSPWGTHISEYDSWGQGTQVTVSS | low polyreactivity
42 | QVKLVESGGVLVQAGGSLRLSCADSGRTFYPYAMGWYRQGPGKDRELVAAISRSGGSTYADSVKGRFTISRDNAKYTVYLQMNSLKPEDTAVYYCATRRKTYLSFNYDYWGQGTQVTVSS | low polyreactivity
43 | QVKLVESGVGLVQAGGSLRLSCAASGSTLTRNAMGWYRQAPGKERELVAAITQRGGSTYYADSVKGRFTLSRDNAKNTVYLQMNSLKPEDTAVYYCNVRAFHKQYSEYDYWGQGTQVTVSS | high polyreactivity
